# Measured values taken from the nanobody polyreactivity screen of Harvey et al. (2022).
# Test: yeast display, Sf9 membrane polyspecificity reagent, FACS + sequencing; frameworks hold sequencing errors
# Method in brief: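 Genes from sorted yeast were amplified by colony PCR, read by MiSeq 2 × 250 sequencing and filtered on CDR length. These cells carried a synthetic nanobody library in Saccharomyces cerevisiae BJ5465 and were sorted by FACS into low and high (top ~1%) gates on anti-HA and streptavidin fluorescence. Polyreactivity is labelled according to the gate of origin.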
row,Sequence,polyreactivity (PSR sort gate)
1,QVQLVESGVRLLQAGGSLRLSCAASGITSDDNTMGWYRQAPGKERELVARIRRTGGGTYYADSVKGRFTISRDNAKNTVYLQINSLKPEDSAVYYCAAVPSWGYRFNRVPYLWVDYWGQGTQVTVSS,low polyreactivity
2,QVQHVESGGGLVQAGGSLRLSCAASGSTIRRNAMGWYRQAPGKERELVAAISGTGGRTYYADSVKGRFTISRDNAKNTVYLQMNSLKPEDTAVYYCNAAGRFYWGQGTQVTVSS,high polyreactivity
3,QVQLVESGGGLVQAGGSLRLSCAASGFIFKLNAMGWYRQAPGKERELVATITRGGDTKYADSVKGRFTISRDNAKNTVYLQMNSLKPEDTAVYYCAAGYPYSYRDYYYWGQGTQVTVSS,high polyreactivity
4,QVQLVESGGGLVQAGGSLRLSCAASGSIFPVYAMGWYRQAPGKERELVASISTGGSTYYADSVKGRFTISRDNAKNTVYLQMNSLKPEDTAVYYCAATGWAYGYGYGYWGQGTQVTVSS,low polyreactivity
5,QVQLVESGGGLVQEGGSLRLSCAASGFIFKHYAMGWYRQAPGKEMELVAAISGGGSTNYADSVKGRFTISRDNAKNTVYLQMNSLKPEDSAVYYCAARSRSLGYGYWGQGTHVTVSS,low polyreactivity
6,QVQLVESGGGLVQAGGSLRLSCAASGRIFNLYVMGWYRQAPGKERELVATISSGGSTNYADSVKGRFTISRDYAKNTVYLQMNSLKPEDTAVNYCAKPYIVYYTMDYWGQGTQVTVSS,low polyreactivity
7,QVQLVESGGGLVQAGGSLRLSCAASGSIFQPYAMGWYRQAPGKERELVAAISIGDSTNYADSVKGRFTISRDNAKNTVYLQMNSLKPADTAVYYCNTTGEYYDYWGQATQVTVSS,low polyreactivity
8,QVQLVESGGGLVQAGGSLRLSCAASGRFLVLNAMGWYRQAPAKERELVADLTSVGSTYYADSVKGRFTISRDNAKNTVDLQMNSLKPEDTAVYYFAADWNTYPDYQQSYFVSYEYNYWGQGTQVTVSS,low polyreactivity
9,QVQLVESGRGLVQAGGSLRLSCAASGSIFIYYAMGWYRQAPGKERELVAAISFSGARTYYADSVKGRFTISRDNAKNTVYLQMNSLKPEDTAVYYCNGARYSRRWPSEYWGQGTQVTVSS,low polyreactivity
10,QVQLVESGGGLVQAGGSLRLSCAASGSIFENNVMGWYRQAPGKERELVAVISWNGGRTYYADSVKGRFTISRDNAKNTVYLQMNSLKPEDTAVYYCNAQGYFWSESIEYDYWGQGTQVTVSS,low polyreactivity
11,QVQLVESGGGLVQAGGSLRLSCAASGRTFGYYAMGWYRQAPGKERELVAAISWSGGSTRYADSVKGRFTISRDNAKNTVYFQLNSLKPEDTAVYYCAADSWYSFAGVYRVYGEDYWGQGTQVTVSS,high polyreactivity
12,QVQLVESAVGLVQAGGSLRLSCAASGILFARYAMGWYRQAPGKERELVAVISGSGGSTYYADSVKGRFTISRDNAKNTVYLQMNSLKPEDTAVYYCNAEFESGHDLDWYDYWGQGTQVTVSS,low polyreactivity
13,QVQLVESVGGLVQAGGSLRLSCAASGSIFVKYAMGWYRQAPGKECEMVPAISGSGGSTYYADSVKGRFTISRDNAKNTVYLQMNSLKQEDTAVYYCAADDYFYAGTLPGWWYDYWGQGTQVTVSS,low polyreactivity
14,QVQLVESGGGLVQAGGSLRLSCAASGRIVYSNAMVWYRQAPGKERELVASITRGSRTNYADSVKGRFTISRDNAKHSVYLPMNSLKPEDTAVYYCARRYLLKPGFGRFYYWGQGNQVTVSS,high polyreactivity
15,QVQLVESGGGLVQAGGSLRLSCAASGFTFRGYTIGWYRQAPGKERELVAAITWSGGSTYYADSVKGRFTISRDNAKNTVYLQMNSLKPEDTAVYYCASYAWYGYVYHHLYDYWGQGTQVTVSS,high polyreactivity
16,QVQLVESGGGLVQAGGSLRLSCAASGFIFVWYAMGWYRQAPGKEREMVAAISFSGSSTYYADSVKGRFTITRDNAKNTVYLQMNSLKPEDTAVYYCAKRIAKYIPRYKFDYWGQGTQVTVSS,high polyreactivity
17,QVQLVESGGGLVQEGGSLRLSCAASGRIFSYNTVMGWYIQAPGKERELVAAITFSSASTYYADSVKGRFTISRDNAKNTVYLQMNSLKPEDTAVYYCAAAIRSQSSKYYYWGQGTQVTVSS,low polyreactivity
18,QVQLVESGGGLVQAGGSLRLSCAASGFIFPAYAMGWYRQAPGKERELVAGITSRGGSTYYADSVKGRFTISRDNAKNTVYLQMNSLKPEDTAVYYCAKPYHWPWTRFDYWGQGTQVTVSS,low polyreactivity
19,QVQLVESGGGLVQAGGSLRLSCAASGRTFDTYAMGWYRQAPWKERELVAAITRRTYYADSVKGRFTISRDNAKNSVYLQMNSLKPEDTAVYYCAVRFLRKWTSSRHYGYWGQGTQVTVSS,high polyreactivity
20,QVQLVESGGGLVQAGGSLRLSCAASGSTFTRYGMGWYRQAPGKERELVAAITTSGSSTYYADSVKGRFTISRDNAKNTVYLQMNSLKPEDTAVYYCAADWSSWGFDYWGQGTQVTVSS,low polyreactivity
21,QVQLVESGGGLVQAGGSLRLSCAASGSTFYPYAMGWYIQAPGKERELVARISSDGSTYADSVKGRFTISRDNAKNTVYLQMNSLKPEDTAVYYCNADAGTGVGWWDDYDYWGQGTQVTVSS,low polyreactivity
22,QVQLVESGGGLVQAGGSLRLSCAASGSIFRFYAMGWYRQAPGKERELVADISWRGGSTYYADSVKGRFTISRDNAKNTVYLQMNSLKPEDTAVSYCAAGYYRASTTVTHGGIEGDSWGQGTQVTVSS,high polyreactivity

row,Sequence,polyreactivity (PSR sort gate)
1,QVQLVESGGCIVQAGGSLRLSCAATGRTFYIYAMGWYRQPPGKESELVATITRGGSTNYADSVKGRFTSSRDNAKNTVYLQMNSLKPVDTAVYYCAAESYFTNWRNRYDYWGQGSQVTVSS,high polyreactivity
2,QVHLVESGGGLVQAGGSLRLSCSAYGSIFAYYAMGWYRQAPGKERELVAAIRSSGGSTYYADSVKGRFTISRDNANNTVYLQMNSLKPEVTAVYYCNVASRRIGPYVYWGQGTQVTVSS,high polyreactivity
3,QVQLVESGGGLVQAGGSLRLSCAATGRIFYGYTMGWYRQPPGKERELVAAINFNAGRTYYADSVKGRFTISRDNAKNTVYLQMNSLKPEDTAVYYCAAEGRFGRKYGYWGQGTQVTVSS,low polyreactivity
4,QVQLVESGGGLVQAGGSLLLSCAASGFTFKCYAMGWYRQAPGKERELVAAISRSGSSTYYADSVKVRFTISRDTAKNTVYLQMNSLKPEDTAVYYCAAYYRTWGGYWGQGTQVTVSS,high polyreactivity
5,QVQLVESGGGLVQAGGSLRLSCAASGSTIVRYAMGWYRQAPGKERELVASISSGGTTNYADSVNGRFTISRDNAKNTVYLQMNSLKPEDTAVYFCNGTWAYRGHGYWGQGTQVTVSS,low polyreactivity
6,QVQLVESGGGLVQAGGSLRLSCAASGRTFVSYAMGWYRQAPGKERELVATITGSTGGTYYADSVKGRFTISRDNAKNTVYLQMNSLKPEDTAVYYCAADRTTYTYYLPYDYWGQGTQVTVSS,low polyreactivity
7,QVQLVESGGGLVQAGGSLRLSCAASGITFPGYAMGWYTQAPGKERELVAVIRKSGTSTYYADSVKGRFTISRDNAKNTVYLQMNSLKPEDTAVYYCAAGGPSTLDDYWGQGTQVTVSS,low polyreactivity
8,QVQLVESGGGLVQAGGSLRLSCAASGRTFFPYAMGWYRQAPGKERELVAAITGSGSSTNYADSVKGRFTISRDNAKNTVYLQMTRLKPVDTAVYYCAKPYYRLEDYWGQGTQVTVSS,low polyreactivity
9,QVQLVESGGGLVQAGGSLRLSSAASGFIFDYSAMGWYRQAPGKERELVAAITRDGGGTYYADSVKGRFTISRDNANNTVYLQMNRLKPEDTAVYYCAARRAVRLYYWGQGTQVTVSA,high polyreactivity
10,QVQLVESGGGLVQSGGSLRLSCAASGYIIPRYAMGWYIHAPGKERELVAGITTGVRTNYADSVKGRFTISRDNAKNSVYLQMNSLKPGDTAVYYCNARYFRYRYNRYDYWGQGTQVTVSS,high polyreactivity
11,QVQLVESGGGLVQAGGSLRLSCAASGFIFSPNAMGWYRQAPGKEREFVAAIRYSGTSTSYADSVKGRFTISRDNAKNTVYLQMNSLKPEDTAVDYCAAQSRQRTGMYYWGQGTQVTVSS,high polyreactivity
12,QVQLVESGGGLVQAGGSLRLSCAASGRTFPSNAMGWYRQAPGKEREFVASITYSGGRTYYADSVKGRFTISRDNAKNTVYLQVNSLKPEDTAVYYCAAYPQFWYLDYNYWGQGTQVTVSS,high polyreactivity
13,QVQLVETGGGLVQAGGSLRLSCAASGYIFYVYAMGWYRQPPGKERELVAAINSGDITYYADSVKGRFTISRDNAKNTVYLQMNRLKPEDTAVYFGATVLILIYDYWGQGTQVTVSS,low polyreactivity
14,QVQLVESGGGLVQAGGSLRLSCAASGNTFSTYGMGWYRQAPGKERELVAGITSDGRTNYADSVKGRFTISRDNAKNTVYLQMNSMKPEVTAVYYCAAEWASRFAVFWAYPKYDYWGQGTQVTVSS,low polyreactivity
15,QVQLQESGGGLVQAGGSLRLSCAASGSIFDGFNMGWYRQAQGKEREFVAAISYGASTYYADSVKGRFTVSRDNAKNSVYLQMNSLKPEDTAVYYCAVYDELYHVLVYWGRGTQVTVSS,low polyreactivity
16,QVQLVESGGCLVQAGGSLRLSCAASGSIFVAYAMGWYRQAPGKERELVAAITGRSGRTYYADSVKGRFTISRDNAKNTVYLQMNSLKPEDTAVYYCAARGYGTDDYDYCGQGTQVTVSS,high polyreactivity
17,QVQLVESGGGLDQAGGSLRLSSAASGFTFRRNAMGWYRQAPGTERELVASITQRGGSTYYADSVKGRFTISRDNAKNTVYLQMNSLKPEATAVYYCAAGPTSRRWYDYWGQGTEVTVSS,high polyreactivity
18,LVQLVESGGGLVQAGGSLRLSCAASGSTFDYYAMGWYRQAPGQERELVAAISGSGDRTYYADSVKGRFTISRDNAKNTVYLQMNSLKPEDTAVYYCAKYGRTRFYYWGQGTQVTVSS,high polyreactivity
19,QVQLVESGGGLVQAGGSLRLTCAASGRTFYIYTMGWYRQAPGKERELVAAISSSGDSTYYADSVKGRFTISRDNAKYTVYLQMISLKPEDTAVYYCAAEYAYHHVGFGYWGQGTQVTVSS,low polyreactivity
20,QVQLVESGGGLVQAGGSLRLSCAASGSIFRYYAMGWYRQAPGQERELVAAISRRGSSTYYADSVKGRFTISRDNAKNTVYLQLNSLKPEDTAVYYCAARSRHSGLTQPTLDYWGQGTQVTVSS,high polyreactivity
21,QVQLVESGGRLVQAGGSLRLSCAASGIIFPYYAMGWYRPAPGTVRELVAGISSSGGITYADSVKGRYTISRDNAKNTVYLPMNSLKPEDTAVYYCNAEYQWLEYDYWGQGTQVTVSS,low polyreactivity
